# In the nanobody polyreactivity screen of Harvey et al. (2022):
# Test: yeast display, Sf9 membrane polyspecificity reagent, FACS + sequencing; frameworks hold sequencing errors
# In short: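 Using colony PCR, genes from sorted yeast display clones were amplified, then sequenced on MiSeq at 2 × 250 and filtered by CDR length. The clones had been stained with 10% biotinylated, detergent-solubilized Sf9 membrane reagent for 1 hour at 4 °C and sorted by FACS into low and high (top ~1%) gates on anti-HA and streptavidin fluorescence. Polyreactivity labels come from the gate of origin.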
row,Sequence,polyreactivity (PSR sort gate)
1,QVQLVESGGGLVQAGGSLRLSCAASGRIFAYYAMGWYRQAPGKERELVAAISSGGSTKYADSVKGRFTISRDNAKNTVYLQMNSLKPEDTAVYYCAAKYGYRKYRGFQNGGDYWGQGTQVNVSS,high polyreactivity
2,QVQLVESGGGLVQAGGSLRLSCAASGRIFAYYAMGWYRQAPGKERELVAAISSGGTTNYADSVKGRFTISRDNAKITVYLQMNSLIPEDTAVYYCNADGWRRSRQYYYWGQGTQVTVSS,low polyreactivity
3,QVQLVESGGGLVQAGGSLRLSCAASGRIFAYYAMGWYRQAPGKERELVAAITSSGGSTYYADSVKGRFTISRDNAKNTVYLQMNSLKPEDTAVYFCAKVGARSERFDYRGQGTQVTVSS,high polyreactivity
4,QVQLVESGGGLVQAGGSLRLSCAASGRIFAYYAMGWYRQAPGKERELVAAITTNGGGTYYADSVKGRFTISRDNETNTVYLQMNSLKAEDTAVYYCAKRSWIEYDYWGQGTQVTVSS,low polyreactivity
5,QVQLVESGGGLVQAGGSLRLSCAASGRIFAYYAMGWYRQAPGKERELVAGINSGGGSTYYADSVKGRFTISRDNAKNTVYLQMNSLKPEDNAVSYCATYYYRRSNRSSTSYDYWGQGTQVTVSS,high polyreactivity
6,QVQLVESGGGLVQAGGSLRLSCAASGRIFAYYAMGWYRQAPGKERELVATITRGGNTNYADSVKGRFTISRDNAKNTVYLQMNSLKPEDTAVYYCNRRYSRWGIYDYWGQGTQVTVSS,high polyreactivity
7,QVQLVESGGGLVQAGGSLRLSCAASGRIFAYYAMGWYRQAPGKEREVVAAISRSGVSTYYADSVKGRFTISRDNAKNTVYLQMNSLKPEDTAVYYCAARWRYGFTSGDYWGQGTQVNVSS,low polyreactivity
8,QVQLVESGGGLVQAGGSLRLSCAASGRIFAYYAMGWYRQAPGQERELVATITGGGDRTYYADSVKGRFTISRDNAKNTLYLQMNSLKPEDTAVYYCNARVWYYSPYYYWGQGTQVTVSS,low polyreactivity
9,QVQLVESGGGLVQAGGSLRLSCAASGRIFAYYTMGWYRQAPGKERELVAAISGSSGRTYYADSVKGRFTISRDNAKNTVYLQMNSLKPEDTAVYYCAARGFSFWRYYYWGQGTQVTVSS,high polyreactivity
10,QVQLVESGGGLVQAGGSLRLSCAASGRIFDDNAKGCYRQPPGKERELLASLTVSTGSTYYADSVKGRFTISRDTAKNTVYLQMNSLKPEDTAVYYCAAPYITPYGTYVFSSDYWGQGTQVTVSS,low polyreactivity
11,QVQLVESGGGLVQAGGSLRLSCAASGRIFDDYAMGWYRQAPGKEREFVAAISRSGASTYYADSVKGRFTISRDNAKNTVYLQMNSLKPEDTAVYYCAARAGANYRMDYWGQGTQVTVSS,high polyreactivity
12,QVQLVESGGGLVQAGGSLRLSCAASGRIFDDYGMGWYRQAQGKESELVAGISFIAGSTYYADSVKGRFTISRDNAKNTVYLQMNSLKPEDTAVYYCAVELWYEYYYWGQGTQVTVSS,high polyreactivity
13,QVQLVESGGGLVQAGGSLRLSCAASGRIFDGNAMGWDRPAPGKERELVADISVTGGSTYYADSVKGRFTISRDNAKNTVYLQMNSLKPEDTAVYYCNAYPFSRSVQLRDYWGQGTQVTVSS,low polyreactivity
14,QVQLVESGGGLVQAGGSLRLSCAASGRIFDGNAMGWYRQAPGKERELVATITRGGRTNYADSVKGRFTISRDNAKNTVYLQMNSLKPEDTAVYYCAAEYTYYTYNLNYWGQGTQVTVSS,low polyreactivity
15,QVQLVESGGGLVQAGGSLRLSCAASGRIFDGNTMGWYRQAPGKERELVAAITYSGGRTSYADSVKGRFTISRDNAKNTVYLQMNSLKPEDTAVYYCNARVVTGSWYEGYYWGQGTQVTVSS,low polyreactivity
16,QVQLVESGGGLVQAGGSLRLSCAASGRIFDGYAMGWYRQAPGTERELVAAITDSGGSTYYADSVKGRFTISRDNAKNTVYLQMNSLKPEDTAVYYCAAEEIDYTDVTSGYEYWGQGTQVTVSS,high polyreactivity
17,QVQLVESGGGLVQAGGSLRLSCAASGRIFDHYAMGWYRQAPGKERELVAAITRSGGITYYADSVKGRFTISRDNAKNTVYLQMNSLKPEDTAVYYCAALSYRYTDKFDYWGQGTQVTVSS,low polyreactivity
